For one substance, Kd results are on record in paper PMC8699727.

pKd: −log10 of the molar value.

The assay addresses Microtubules polymerized from purified porcine brain tubulin (porcine) (UniProt P02550). The assay can be described thus: co-sedimentation.

As to “GST-TAOK2-C (1,187–1,235) (from UniProt Q9UL54 1187-1235) (domain or fragment)”, the pKd is 6.17.

One may read the pKd as the Kd on a negative log10 scale, so that one unit is a factor of ten. A lower pKd goes with a high Kd.
